Test results taken from patent publication CN114426574A (WUHAN VIRUS INST OF CHINESE ACADEMY OF SCIENCES, dated 2022).

Target: WH-RBD-TFc (SARS-CoV-2 spike glycoprotein receptor binding domain, thrombin site, human IgG1 Fc fusion) (SARS-CoV-2; human, UniProt P0DTC2 319-541)

B1: Fab F1-B3 (Fab, V domains shown)
VH: QVQLQESGGGLVQPGGSLRLSCAASGFTVSSNYMSWVRQAPGEGLEWVSSISSSSSYIYYADSVKGRFTISRDNAKNSLYLQMNSLRAEDTAVYYCARGKWLRGAFDIWGQGTTVTVSS
VL: NFMLTQPHSMSESPGKTVTISCTGSSGSIANNYVQWYRQRPGSAPITVIYEDNQRPSGVPDRFSGSIDSSSNSASLTISGLKTEDEADYYCQSYDSSTHWVFGGGTKLTVLG
EC50: 12 nM

B2: Fab F1-B5 (Fab, V domains shown)
VH: EVQLVQSGGGVVQPGRSLRLSCAASGFTVSSNYMSWVRQAPGKGLEWVSVIYSGGSTYYADSVKGRFTISRDNSKNTLYLQMNSLRAEDTAVYYCARGDGSDDYYYGMDVWGQGTTVTVSS
VL: QAVLTQPSSVSGAPGQRVTISCTGSSSNVGAGYDVHWYQQLPGTAPKLLIYGNSNRPSGVPDRFSGSKSGTSASLAITGLQAEDEADYYCQSYDSSLSGSVFGGGTKLTVLG
EC50: 63 nM
